The results in this text go back to publication PMC5833442, “Cooperation between Hsp90 and mortalin/GRP75 in resistance to cell death induced by complement C5b-9” (Cell Death & Disease, 2018).

For the assay, the target named is T1, recombinant human Hsp90β (human, UniProt P08238 1-724).
T1 construct: Heat shock protein 90 beta (Hsp90β, constitutively expressed form, gene HSP90AB1), human, recombinant; Commercial protein; also called heat shock protein 90; purified Hsp90; source: bought: StressMarq (recombinant)
T1 sequence (P08238 whole entry): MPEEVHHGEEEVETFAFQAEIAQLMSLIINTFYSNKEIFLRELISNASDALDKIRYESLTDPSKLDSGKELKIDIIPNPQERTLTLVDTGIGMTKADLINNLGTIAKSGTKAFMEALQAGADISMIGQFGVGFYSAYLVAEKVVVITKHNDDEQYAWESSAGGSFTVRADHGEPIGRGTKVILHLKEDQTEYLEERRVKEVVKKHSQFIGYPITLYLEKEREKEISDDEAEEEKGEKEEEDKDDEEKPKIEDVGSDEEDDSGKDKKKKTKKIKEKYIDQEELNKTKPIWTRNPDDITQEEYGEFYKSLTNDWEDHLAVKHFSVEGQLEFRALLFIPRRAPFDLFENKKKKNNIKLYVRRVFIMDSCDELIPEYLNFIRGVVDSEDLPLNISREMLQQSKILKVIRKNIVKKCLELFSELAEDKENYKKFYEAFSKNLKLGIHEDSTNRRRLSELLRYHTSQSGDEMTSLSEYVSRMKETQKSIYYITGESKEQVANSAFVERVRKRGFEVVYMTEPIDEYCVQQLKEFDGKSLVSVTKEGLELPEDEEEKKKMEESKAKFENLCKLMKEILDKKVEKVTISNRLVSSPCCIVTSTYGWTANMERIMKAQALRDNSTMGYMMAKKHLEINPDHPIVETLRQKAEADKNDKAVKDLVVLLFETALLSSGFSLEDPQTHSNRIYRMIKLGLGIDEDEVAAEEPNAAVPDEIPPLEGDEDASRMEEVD
The assay can be described thus: co-sedimentation; Hsp90β mixed with C9 or BSA (1 µg each) in TBS, 1 h at 37 °C; sucrose density gradient (1–20% by text and methods, 10–30% by legend), 18 h ultracentrifugation, 4 °C; fractions dot blotted with anti-Hsp90β or anti-C9. The note with it: both partners purified.

B1: purified human C9 (natural protein)
chain: not shown
notes: Complement component C9, human, purified; also called complement C9; complement protein C9; source: bought: Complement Technology Inc. (purified human C9)
In the case of B1, the binding result is recorded as “binds”.
